Data as given in article PMC3997499, “Resolving Hot Spots in the C-Terminal Dimerization Domain that Determine the Stability of the Molecular Chaperone Hsp90” (PLoS ONE, 2014).
Where “and” joins values, the source holds several entries; their conditions need not be identical. Equal values may be shown once.

B1: C-terminal domain (CTD) of human heat shock protein of 90 kDa (hHsp90), wild type (domain or fragment)
chain: not shown
notes: human Hsp90 alpha isoform (UniProt P07900), C-terminal domain, residues 563-732; synthetic codon-optimized DNA; Vector pTEV21-a; also called CTD wt; wt
B2: hHsp90 CTD hot spot mutant II CTD^I688A/Y689A/I692A (domain or fragment)
chain: not shown
notes: human Hsp90 alpha isoform (UniProt P07900), C-terminal domain, residues 563-732, with I688A, Y689A and I692A; Same construct as m1 (pTEV21-a), made by site-directed mutagenesis
B3: hHsp90 CTD hot spot mutant I CTD^Y689A/I692A/L696A (domain or fragment)
chain: not shown
notes: human Hsp90 alpha isoform (UniProt P07900), C-terminal domain, residues 563-732, with Y689A, I692A and L696A; Same construct as m1 (pTEV21-a), made by site-directed mutagenesis
B4: hHsp90 CTD cold spot mutant CTD^S658A/Q682A (domain or fragment)
chain: not shown
notes: human Hsp90 alpha isoform (UniProt P07900), C-terminal domain, residues 563-732, with S658A and Q682A; Same construct as m1 (pTEV21-a), made by site-directed mutagenesis; also called S658A/Q682A cold spot mutant

Assays:
[1] = molecular target: the molecule itself; assay: SEC; Superdex SD200 10/300, 4°C, HPLC buffer (10 mM MES/KOH, 200 mM KCl, 1 mM EDTA, 1% glycerol) pH 6, 110 µL purified CTD, triplicates; apparent stoichiometry from calibration with globular protein standards
[2] = molecular target: the molecule itself; assay: SEC-MALS; Bio SEC-5 150 Å column, HPLC buffer without glycerol (10 mM MES, 200 mM KCl, 1 mM EDTA, pH 6), samples 2.4 mg/ml; dimer to monomers
[3] = molecular target: the molecule itself; assay: as above; remark: listed apart in the source

| Protein | stoichiometry N [1] | stoichiometry N [2] | fraction of species 1 (monomer mass) [3] | fraction of species 2 (dimer mass) [3] | binding result [1] |
| --- | --- | --- | --- | --- | --- |
| B1 | 4 and 8 | 2 | 0 | 1 | – |
| B2 | 4 | 2 | 0.69 | 0.31 | – |
| B3 | 4 | 2 | 0.77 | 0.23 | – |
| B4 | – | – | – | – | binds |
